This passage reports Kd results from paper PMC7650249.

For experiment [1], the target named is activated protein C S12C/R312C mutant, labeled with AF555/AF647 (human) (UniProt P04070). In words: other fluorescence titration; single molecule FRET of freely diffusing labeled protein C or APC (150 pM) titrated with thrombin S195A; shift of the peak center of the low FRET population, single-site fit; 20 mM Tris, 145 mM NaCl, 0.02% Tween 20, pH 7.5, 10 mM EDTA, 20 °C.

Experiment [2] has as its target protein C S12C/R312C mutant, labeled with AF555/AF647 (two-chain zymogen) (human) (UniProt P04070). The experiment is described as above.

pKd: −log10 of the molar value.

Usually pKd stands for the negative decadic logarithm of the Kd, by convention in mol/L. In the case of “thrombin, catalytically inactive mutant S195A (enzyme)”, the pKd in experiment [1] is 5.96; in experiment [2] it was 6.07.
